Earlier results, collected in paper PMC4657025.
Numbering of substitutions follows the chain as printed. Names may count otherwise. Read-outs that look alike come from different tables or passages of the source.

B1: Bacteriorhodopsin (BR) (Halobacterium salinarum) (protein)
chain: QAQITGRPEWIWLALGTALMGLGTLYFLVKGMGVSDPDAKKFYAITTLVPAIAFTMYLSMLLGYGLTMVPFGGEQNPIYWARYADWLFTTPLLLLDLALLVDADQGTILALVGADGIMIGTGLVGALTKVYSYRFVWWAISTAAMLYILYVLFFGFTSKAESMRPEVASTFKVLRNVTVVLWSAYPVVWLIGSEGAGIVPLNIETLLFMVLDVSAKVGFGLILLRSRAIFGEAEAPEPSAGDGAAATSD
B2: Bacteriorhodopsin R82Q mutant (Halobacterium salinarum; R82Q) (protein)
chain: B1 chain with R82Q

What was measured:
[1] = biological target: Asp85 (UniProt position 98, …)
[2] = biological target: Asp96 (UniProt position 109, …); assay: not stated in the text (title of ref 19 indicates FTIR spectroscopy); conditions: dark state (unphotolysed BR)
[3] = biological target: Asp85 (UniProt position 98, …); conditions: 150 mM NaCl

Protein	pKa [1]	pKa ([1]; 150 mM NaCl)	pKa [2]	pKa [3]
B1	2.7	2.5	>11	
B2				7.2
